Values of other authors, collected in patent publication US20240409647A1, “BISPECIFIC BINDING PROTEINS AGAINST ALARMINS AND USES THEREOF” (SINOMAB BIOSCIENCE LIMITED, priority 2022, published 2024).

Conditions: patients who discontinued ICS and LABA, 12 weeks; placebo 41%

B1: itepekimab: anti-IL-33 antibody (antibody, chains of the INN, looked up, V domains shown)
VH: EVQLVESGGNLEQPGGSLRLSCTASGFTFSRSAMNWVRRAPGKGLEWVSGISGSGGRTYYADSVKGRFTISRDNSKNTLYLQMNSLSAEDTAAYYCAKDSYTTSWYGGMDVWGHGTTVTVSS
VL: DIQMTQSPSSVSASVGDRVTITCRASQGIFSWLAWYQQKPGKAPKLLIYAASSLQSGVPSRFSGSGSGTDFTLTISSLQPEDFAIYYCQQANSVPITFGQGTRLEIK
  rate of loss of asthma control: 22%
